{"source": "patent US20130344073", "key": {"ST-pro-factor D-His": {"target": "ST-pro-factor D-His (UniProt P00746)", "sequence (P00746 other isoform, or with tags, fused parts or gaps)": "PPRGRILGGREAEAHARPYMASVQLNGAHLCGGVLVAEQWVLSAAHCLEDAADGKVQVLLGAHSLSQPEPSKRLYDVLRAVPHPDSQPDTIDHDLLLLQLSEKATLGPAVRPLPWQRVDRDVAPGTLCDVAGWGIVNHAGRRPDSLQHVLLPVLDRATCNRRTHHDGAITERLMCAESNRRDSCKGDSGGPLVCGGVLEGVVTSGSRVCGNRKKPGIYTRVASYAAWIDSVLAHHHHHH"}, "pro-factor D-His": {"target": "pro-factor D-His (UniProt P00746)", "sequence (P00746 other isoform, or with tags, fused parts or gaps)": "as above"}, "[1]": {"target": "ST-pro-factor D-His, P00746", "sequence (P00746 whole entry, looked up)": "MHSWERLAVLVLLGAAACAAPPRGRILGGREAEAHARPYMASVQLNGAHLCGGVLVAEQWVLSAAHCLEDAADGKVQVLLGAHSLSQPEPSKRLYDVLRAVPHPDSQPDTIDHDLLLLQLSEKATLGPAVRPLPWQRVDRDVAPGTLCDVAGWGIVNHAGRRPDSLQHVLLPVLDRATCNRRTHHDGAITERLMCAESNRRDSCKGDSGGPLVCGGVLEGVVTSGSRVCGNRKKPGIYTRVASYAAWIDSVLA"}, "[2]": {"target": "purified plasma factor B, P00751", "sequence (P00751 26-764)": "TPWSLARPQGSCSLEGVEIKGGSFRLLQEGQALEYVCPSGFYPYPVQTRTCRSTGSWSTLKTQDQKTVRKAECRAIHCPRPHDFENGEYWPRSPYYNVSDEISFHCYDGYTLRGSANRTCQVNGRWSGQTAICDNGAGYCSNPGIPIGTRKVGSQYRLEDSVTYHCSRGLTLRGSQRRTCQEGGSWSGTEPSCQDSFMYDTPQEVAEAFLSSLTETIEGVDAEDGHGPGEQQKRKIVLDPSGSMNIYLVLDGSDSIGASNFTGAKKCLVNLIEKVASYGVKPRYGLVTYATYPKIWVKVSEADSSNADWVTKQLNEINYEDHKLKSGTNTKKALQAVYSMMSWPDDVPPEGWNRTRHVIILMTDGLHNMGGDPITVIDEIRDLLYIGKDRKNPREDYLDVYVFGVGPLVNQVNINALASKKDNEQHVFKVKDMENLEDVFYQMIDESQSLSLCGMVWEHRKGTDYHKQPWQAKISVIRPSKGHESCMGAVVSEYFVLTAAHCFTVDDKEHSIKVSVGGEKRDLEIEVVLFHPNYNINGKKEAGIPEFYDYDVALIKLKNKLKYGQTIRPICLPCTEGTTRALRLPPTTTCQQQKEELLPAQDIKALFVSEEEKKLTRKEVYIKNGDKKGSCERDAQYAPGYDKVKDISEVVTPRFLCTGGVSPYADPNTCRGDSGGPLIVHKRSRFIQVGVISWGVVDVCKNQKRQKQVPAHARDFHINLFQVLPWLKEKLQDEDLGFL"}}, "data": [{"protein": "recombinant MASP-1 (CCP1-CCP2-SP) fragment (enzyme, part only; not given: amino-terminal Strep tag) chain, part: GNECPELQPPVHGKIEPSQAKYFFKDQVLVSCDTGYKVLKDNVEMDTFQIECLKDGTWSNKIPTCKIVDCRAPGELEHGLITFSTRNNLTTYKSEIKYSCQEPYYKMLNNNTGIYTCSAQGVWMNKVLGRSLPTCLPVCGLPKFSRKLMARIFNGRPAQKGTTPWIAMLSHLNGQPFCGGSLLGSSWIVTAAHCLHQSLDPKDPTLRDSDLLSPSDFKIILGKHWRLRSDENEQHLGVKHTTLHPKYDPNTFENDVALVELLESPVLNAFVMPICLPEGPQQEGAMVIVSGWGKQFLQRFPETLMEIEIPIVDHSTCQKAYAPLKKKVTRDMICAGEKEGGKDACSGDSGGPMVTLNRERGQWYLVGTVSWGDDCGKKDRYGVYSYIHHNKDWIQRVTGVRNHHHHHH", "values": [{"measurement": "cleavage of pro-factor D (Western blot)", "setting": "ST-pro-factor D-His", "result": "only full length MASP-3 (lane 2) and the MASP-1 CCP1-CCP2-SP) fragment (lane 5) cleaved ST-pro-factor D-His6"}, {"measurement": "cleavage of pro-factor D (Western blot)", "setting": "pro-factor D-His", "result": "Identical results were obtained with the pro-factor D-His6 polypeptide (not shown)"}]}, {"protein": "catalytically-inactive MASP-1 (S646A) (protein) HTVELNNMFGQIQSPGYPDSYPSDSEVTWNITVPDGFRIKLYFMHFNLESSYLCEYDYVKVETEDQVLATFCGRETTDTEQTPGQEVVLSPGSFMSITFRSDFSNEERFTGFDAHYMAVDVDECKEREDEELSCDHYCHNYIGGYYCSCRFGYILHTDNRTCRVECSDNLFTQRTGVITSPDFPNPYPKSSECLYTIELEEGFMVNLQFEDIFDIEDHPEVPCPYDYIKIKVGPKVLGPFCGEKAPEPISTQSHSVLILFHSDNSGENRGWRLSYRAAGNECPELQPPVHGKIEPSQAKYFFKDQVLVSCDTGYKVLKDNVEMDTFQIECLKDGTWSNKIPTCKIVDCRAPGELEHGLITFSTRNNLTTYKSEIKYSCQEPYYKMLNNNTGIYTCSAQGVWMNKVLGRSLPTCLPVCGLPKFSRKLMARIFNGRPAQKGTTPWIAMLSHLNGQPFCGGSLLGSSWIVTAAHCLHQSLDPEDPTLRDSDLLSPSDFKIILGKHWRLRSDENEQHLGVKHTTLHPQYDPNTFENDVALVELLESPVLNAFVMPICLPEGPQQEGAMVIVSGWGKQFLQRFPETLMEIEIPIVDHSTCQKAYAPLKKKVTRDMICAGEKEGGKDACAGDAGGPMVTLNRERGQWYLVGTVSWGDDCGKKDRYGVYSYIHHNKDWIQRVTGVRN", "values": [{"measurement": "cleavage of pro-factor D (Western blot)", "setting": "pro-factor D-His, P00746", "result": "The catalytically-inactive full length MASP-3 (S679A; lane 3) and MASP-1 (S646A; lane 3) failed to cleave either substrate"}, {"measurement": "cleavage of pro-factor D (Western blot)", "setting": "[1]", "result": "The catalytically-inactive full length MASP-3 (S679A; lane 3) and MASP-1 (S646A; lane 3) failed to cleave either substrate"}]}, {"protein": "human MASP-3 (protein) HTVELNNMFGQIQSPGYPDSYPSDSEVTWNITVPDGFRIKLYFMHFNLESSYLCEYDYVKVETEDQVLATFCGRETTDTEQTPGQEVVLSPGSFMSITFRSDFSNEERFTGFDAHYMAVDVDECKEREDEELSCDHYCHNYIGGYYCSCRFGYILHTDNRTCRVECSDNLFTQRTGVITSPDFPNPYPKSSECLYTIELEEGFMVNLQFEDIFDIEDHPEVPCPYDYIKIKVGPKVLGPFCGEKAPEPISTQSHSVLILFHSDNSGENRGWRLSYRAAGNECPELQPPVHGKIEPSQAKYFFKDQVLVSCDTGYKVLKDNVEMDTFQIECLKDGTWSNKIPTCKIVDCRAPGELEHGLITFSTRNNLTTYKSEIKYSCQEPYYKMLNNNTGIYTCSAQGVWMNKVLGRSLPTCLPECGQPSRSLPSLVKRIIGGRNAEPGLFPWQALIVVEDTSRVPNDKWFGSGALLSASWILTAAHVLRSQRRDTTVIPVSKEHVTVYLGLHDVRDKSGAVNSSAARVVLHPDFNIQNYNHDIALVQLQEPVPLGPHVMPVCLPRLEPEGPAPHMLGLVAGWGISNPNVTVDEIISSGTRTLSDVLQYVKLPVVPHAECKTSYESRSGNYSVTENMFCAGYYEGGKDTCLGDSGGAFVIFDDLSQRWVVQGLVSWGGPEECGSKQVYGVYTKVSNYVDWVWEQMGLPQSVVEPQVER", "values": [{"measurement": "factor B cleavage (Coomassie-stained SDS-PAGE), with C3(H2O)", "setting": "[2]", "result": "either MASP-3 or pro-factor D are able to mediate factor B cleavage, as long as C3 is present"}, {"measurement": "cleavage of pro-factor D (Western blot), 80 ng MASP-3, 70 ng substrate, 75 minutes at 37 C", "setting": "[1]", "result": "MASP-3 cleaves approximately 50% of pro-factor D into factor D (lane 1)"}]}]}
